Data as given in paper PMC11371640, “Structural deficits in key domains of Shank2 lead to alterations in postsynaptic nanoclusters and to a neurodevelopmental disorder in humans” (Molecular Psychiatry, 2022).
Changes are numbered by the printed parent chain. “And” between values parts separate entries of the source, which are not always exact repeats. Equal entries are not always repeated.

Legend:
[1] = target: T1, His6-SUMO-tagged SH3 to PDZ domains of Shank2 (R520-D727), WT ( (human or rat cDNA cloned), UniProt Q9UPX8-3 520-727); experiment: ITC
T1 chain: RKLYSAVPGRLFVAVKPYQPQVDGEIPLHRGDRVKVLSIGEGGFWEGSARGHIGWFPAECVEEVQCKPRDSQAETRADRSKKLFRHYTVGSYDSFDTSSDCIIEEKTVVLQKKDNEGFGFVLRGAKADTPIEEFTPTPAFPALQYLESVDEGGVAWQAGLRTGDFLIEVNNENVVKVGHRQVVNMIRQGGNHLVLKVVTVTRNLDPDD

[2] = target: T2, His6-SUMO-tagged SH3 to PDZ domains of Shank2 (R520-D727), S610Y ( (human or rat cDNA cloned), UniProt Q9UPX8-3 520-727, S610Y); experiment: ITC
T2 sequence: T1 chain with S91Y

[3] = target: T3, His6-SUMO-tagged SH3 to PDZ domains of Shank2 (R520-D727), G643R ( (human or rat cDNA cloned), UniProt Q9UPX8-3 520-727, G643R); experiment: ITC
T3 sequence: T1 chain with G124R

[4] = target: T4, His6-SUMO-tagged SH3 to PDZ domains of Shank2 (R520-D727), N690S ( (human or rat cDNA cloned), UniProt Q9UPX8-3 520-727, N690S); experiment: ITC
T4 sequence: T1 chain with N171S

[5] = target: T5, His6-SUMO-tagged SH3 to PDZ domains of Shank2 (R520-D727), V717F ( (human or rat cDNA cloned), UniProt Q9UPX8-3 520-727, V717F); experiment: ITC
T5 sequence: T1 chain with V198F

[6] = target: T6, His6-SUMO-tagged SH3 to PDZ domains of Shank2 (R520-D727), S610Y ( (human or rat cDNA cloned), UniProt Q9UPX8-3 520-727, S610Y); experiment: ITC; peptide in the syringe (200 µM; 1 mM for G643R), His6-SUMO SH3-PDZ protein in the cell (20-30 µM); 25 °C; 50 mM Tris-HCl pH 8.0, 100 mM NaCl, 1 mM EDTA; 1:1 binding model; conditions: both partners purified
T6 construct: Shank2, SH3 to PDZ domains, residues R520-D727, patient variant S610Y; numbers count on: NM_012309.5 (isoform of 1849 residues); source: E. coli BL21(DE3), purified (Ni-NTA agarose, G-25); not shown: His6, N-terminal, kept; SUMO, N-terminal, kept
T6 sequence (looked up): T1 chain with S91Y

[7] = target: T7, His6-SUMO-tagged SH3 to PDZ domains of Shank2 (R520-D727), V717F ( (human or rat cDNA cloned), UniProt Q9UPX8-3 520-727, V717F); experiment: as above; conditions: both partners purified
T7 construct: Shank2, SH3 to PDZ domains, residues R520-D727, patient variant V717F; numbers count on: NM_012309.5 (isoform of 1849 residues); source: E. coli BL21(DE3), purified (Ni-NTA agarose, G-25); not shown: His6, N-terminal, kept; SUMO, N-terminal, kept
T7 sequence (looked up): T1 chain with V198F

[8] = target: T8, His6-SUMO-tagged SH3 to PDZ domains of Shank2 (R520-D727), G643R ( (human or rat cDNA cloned), UniProt Q9UPX8-3 520-727, G643R); experiment: as above; conditions: both partners purified
T8 construct: Shank2, SH3 to PDZ domains, residues R520-D727, patient variant G643R; numbers count on: NM_012309.5 (isoform of 1849 residues); also called G643R mutant Shank2; G643R variant; source: E. coli BL21(DE3), purified (Ni-NTA agarose, G-25); not shown: His6, N-terminal, kept; SUMO, N-terminal, kept
T8 sequence (looked up): T1 chain with G124R

[9] = target: T9, His6-SUMO-tagged SH3 to PDZ domains of Shank2 (R520-D727), N690S ( (human or rat cDNA cloned), UniProt Q9UPX8-3 520-727, N690S); experiment: as above; conditions: both partners purified
T9 construct: Shank2, SH3 to PDZ domains, residues R520-D727, patient variant N690S; numbers count on: NM_012309.5 (isoform of 1849 residues); source: E. coli BL21(DE3), purified (Ni-NTA agarose, G-25); not shown: His6, N-terminal, kept; SUMO, N-terminal, kept
T9 sequence (looked up): T1 chain with N171S

[10] = target: T10, His6-SUMO-tagged SH3 to PDZ domains of Shank2 (R520-D727), WT ( (human or rat cDNA cloned), UniProt Q9UPX8-3 520-727); experiment: as above; conditions: both partners purified
T10 construct: Shank2, SH3 to PDZ domains, residues R520-D727; numbers count on: NM_012309.5 (isoform of 1849 residues); Cloned into pET-SUMO; also called His6-SUMO-SH3-PDZ fusion; Shank2 WT; source: E. coli BL21(DE3), purified (Ni-NTA agarose, G-25); not shown: His6, N-terminal, kept; SUMO, N-terminal, kept
T10 sequence (looked up): T1 chain

Kd [1]: 319 nM and 320 nM
Kd [2]: 910 nM
Kd [3]: 22000 nM and 22500 nM
Kd [4]: 411 nM
Kd [5]: 848 nM
binding result [6]: binds
binding result [7]: binds
fold reduction of affinity against WT [8]: > 70 fold
binding result [9]: binds
binding result [10]: binds
B1: synthetic peptide of the complete PDZ ligand of GKAP (last 15 amino acids of GKAP/SAPAP1) (peptide)
peptide: ADSIEIYIPEAQTRL
notes: GKAP/SAPAP1, the last 15 amino acids (complete PDZ ligand), free N- and C-terminus; also called GKAP peptide; source: synthetic peptide (Genscript)
